Measurements from the supplement of paper PMC10567573.

B1: PTPRD (parent)
chain: PVVSMDLDPQPITDEEEGLIWVVG

Variants of: B1
Experiment: protein stability index of a GFP-peptide fusion (GPS, HEK-293T) (PSI 1-6); higher = more stable
Conditions: c terminus: a fixed tail appended
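Further: lentivirally expressed fusions sorted by FACS into six bins by GFP to DsRed ratio, PSI derived from sequencing read proportions per bin multiplied by bin number.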

Q: For PVVSRDLDPQPITDEEEGLIWVVG [M5R], which protein stability index is on record?
A: 4.31

Q: For PVVSSDLDPQPITDEEEGLIWVVG [M5S], which protein stability index is on record?
A: 3.77

Q: With PVVSTDLDPQPITDEEEGLIWVVG [M5T] as the variant, how does the protein stability index read?
A: 4.01

Q: With PVVSVDLDPQPITDEEEGLIWVVG [M5V] as the variant, how does the protein stability index read?
A: 3.92

Q: With PVVSWDLDPQPITDEEEGLIWVVG [M5W] as the variant, how does the protein stability index read?
A: 3.51

Q: With PVVSYDLDPQPITDEEEGLIWVVG [M5Y] as the variant, how does the protein stability index read?
A: 3.54

Q: For PVVSMALDPQPITDEEEGLIWVVG [D6A], which protein stability index is on record?
A: 4.22

Q: For PVVSMCLDPQPITDEEEGLIWVVG [D6C], which protein stability index is on record?
A: 3.6

Q: With PVVSMELDPQPITDEEEGLIWVVG [D6E] as the variant, how does the protein stability index read?
A: 4.24

Q: Which protein stability index does the source give for PVVSMFLDPQPITDEEEGLIWVVG [D6F] here?
A: 2.36

Q: Which protein stability index does the source give for PVVSMHLDPQPITDEEEGLIWVVG [D6H] here?
A: 3.24

Q: For PVVSMILDPQPITDEEEGLIWVVG [D6I], which protein stability index is on record?
A: 2.56

Q: With PVVSMKLDPQPITDEEEGLIWVVG [D6K] as the variant, how does the protein stability index read?
A: 2.99

Q: For PVVSMLLDPQPITDEEEGLIWVVG [D6L], which protein stability index is on record?
A: 3.35

Q: Which protein stability index does the source give for PVVSMNLDPQPITDEEEGLIWVVG [D6N] here?
A: 4.53

Q: For PVVSMPLDPQPITDEEEGLIWVVG [D6P], which protein stability index is on record?
A: 3.48

Q: With PVVSMQLDPQPITDEEEGLIWVVG [D6Q] as the variant, how does the protein stability index read?
A: 3.5

Q: For PVVSMRLDPQPITDEEEGLIWVVG [D6R], which protein stability index is on record?
A: 3.67

Q: With PVVSMSLDPQPITDEEEGLIWVVG [D6S] as the variant, how does the protein stability index read?
A: 3.4

Q: Which protein stability index does the source give for PVVSMTLDPQPITDEEEGLIWVVG [D6T] here?
A: 3.25

Q: With PVVSMVLDPQPITDEEEGLIWVVG [D6V] as the variant, how does the protein stability index read?
A: 2.7

Q: With PVVSMWLDPQPITDEEEGLIWVVG [D6W] as the variant, how does the protein stability index read?
A: 1.94

Q: Which protein stability index does the source give for PVVSMYLDPQPITDEEEGLIWVVG [D6Y] here?
A: 2.25

Q: With PVVSMDADPQPITDEEEGLIWVVG [L7A] as the variant, how does the protein stability index read?
A: 4.31

Q: With PVVSMDCDPQPITDEEEGLIWVVG [L7C] as the variant, how does the protein stability index read?
A: 3.54

Q: For PVVSMDEDPQPITDEEEGLIWVVG [L7E], which protein stability index is on record?
A: 4.89

Q: Which protein stability index does the source give for PVVSMDFDPQPITDEEEGLIWVVG [L7F] here?
A: 4.79

Q: With PVVSMDGDPQPITDEEEGLIWVVG [L7G] as the variant, how does the protein stability index read?
A: 4.87

Q: Which protein stability index does the source give for PVVSMDHDPQPITDEEEGLIWVVG [L7H] here?
A: 3.48

Q: For PVVSMDIDPQPITDEEEGLIWVVG [L7I], which protein stability index is on record?
A: 3.94

Q: Which protein stability index does the source give for PVVSMDMDPQPITDEEEGLIWVVG [L7M] here?
A: 3.29

Q: For PVVSMDNDPQPITDEEEGLIWVVG [L7N], which protein stability index is on record?
A: 4.74

Q: With PVVSMDPDPQPITDEEEGLIWVVG [L7P] as the variant, how does the protein stability index read?
A: 3.4

Q: For PVVSMDRDPQPITDEEEGLIWVVG [L7R], which protein stability index is on record?
A: 4.4

Q: With PVVSMDSDPQPITDEEEGLIWVVG [L7S] as the variant, how does the protein stability index read?
A: 4.33

Q: For PVVSMDTDPQPITDEEEGLIWVVG [L7T], which protein stability index is on record?
A: 2.63

Q: With PVVSMDVDPQPITDEEEGLIWVVG [L7V] as the variant, how does the protein stability index read?
A: 4.01

Q: For PVVSMDWDPQPITDEEEGLIWVVG [L7W], which protein stability index is on record?
A: 3.52

Q: Which protein stability index does the source give for PVVSMDYDPQPITDEEEGLIWVVG [L7Y] here?
A: 4.27

Q: With PVVSMDLAPQPITDEEEGLIWVVG [D8A] as the variant, how does the protein stability index read?
A: 3.73

Q: Which protein stability index does the source give for PVVSMDLCPQPITDEEEGLIWVVG [D8C] here?
A: 2.61

Q: For PVVSMDLEPQPITDEEEGLIWVVG [D8E], which protein stability index is on record?
A: 3.92

Q: Which protein stability index does the source give for PVVSMDLGPQPITDEEEGLIWVVG [D8G] here?
A: 3.8

Q: Which protein stability index does the source give for PVVSMDLHPQPITDEEEGLIWVVG [D8H] here?
A: 2.1

Q: For PVVSMDLIPQPITDEEEGLIWVVG [D8I], which protein stability index is on record?
A: 2.53

Q: Which protein stability index does the source give for PVVSMDLLPQPITDEEEGLIWVVG [D8L] here?
A: 3.31

Q: For PVVSMDLMPQPITDEEEGLIWVVG [D8M], which protein stability index is on record?
A: 3.29

Q: For PVVSMDLNPQPITDEEEGLIWVVG [D8N], which protein stability index is on record?
A: 3.55

Q: Which protein stability index does the source give for PVVSMDLPPQPITDEEEGLIWVVG [D8P] here?
A: 3.56

Q: For PVVSMDLTPQPITDEEEGLIWVVG [D8T], which protein stability index is on record?
A: 3.61

Q: Which protein stability index does the source give for PVVSMDLVPQPITDEEEGLIWVVG [D8V] here?
A: 3.25

Q: Which protein stability index does the source give for PVVSMDLWPQPITDEEEGLIWVVG [D8W] here?
A: 2.52

Q: For PVVSMDLYPQPITDEEEGLIWVVG [D8Y], which protein stability index is on record?
A: 2.74

Q: With PVVSMDLDAQPITDEEEGLIWVVG [P9A] as the variant, how does the protein stability index read?
A: 2.88

Q: Which protein stability index does the source give for PVVSMDLDCQPITDEEEGLIWVVG [P9C] here?
A: 3.67

Q: For PVVSMDLDDQPITDEEEGLIWVVG [P9D], which protein stability index is on record?
A: 4.52

Q: For PVVSMDLDFQPITDEEEGLIWVVG [P9F], which protein stability index is on record?
A: 1.93

Q: For PVVSMDLDGQPITDEEEGLIWVVG [P9G], which protein stability index is on record?
A: 4.54

Q: For PVVSMDLDIQPITDEEEGLIWVVG [P9I], which protein stability index is on record?
A: 3.23

Q: With PVVSMDLDKQPITDEEEGLIWVVG [P9K] as the variant, how does the protein stability index read?
A: 3.71

Q: Which protein stability index does the source give for PVVSMDLDNQPITDEEEGLIWVVG [P9N] here?
A: 4.12

Q: Which protein stability index does the source give for PVVSMDLDQQPITDEEEGLIWVVG [P9Q] here?
A: 4.05

Q: With PVVSMDLDRQPITDEEEGLIWVVG [P9R] as the variant, how does the protein stability index read?
A: 3.58

Q: With PVVSMDLDTQPITDEEEGLIWVVG [P9T] as the variant, how does the protein stability index read?
A: 4.18

Q: With PVVSMDLDVQPITDEEEGLIWVVG [P9V] as the variant, how does the protein stability index read?
A: 3.19

Q: Which protein stability index does the source give for PVVSMDLDWQPITDEEEGLIWVVG [P9W] here?
A: 2.96

Q: With PVVSMDLDYQPITDEEEGLIWVVG [P9Y] as the variant, how does the protein stability index read?
A: 3.41

Q: For PVVSMDLDPAPITDEEEGLIWVVG [Q10A], which protein stability index is on record?
A: 3.56

Q: For PVVSMDLDPCPITDEEEGLIWVVG [Q10C], which protein stability index is on record?
A: 3.08

Q: With PVVSMDLDPDPITDEEEGLIWVVG [Q10D] as the variant, how does the protein stability index read?
A: 4.27

Q: With PVVSMDLDPGPITDEEEGLIWVVG [Q10G] as the variant, how does the protein stability index read?
A: 3.99

Q: With PVVSMDLDPIPITDEEEGLIWVVG [Q10I] as the variant, how does the protein stability index read?
A: 4.09

Q: Which protein stability index does the source give for PVVSMDLDPKPITDEEEGLIWVVG [Q10K] here?
A: 3.76

Q: Which protein stability index does the source give for PVVSMDLDPLPITDEEEGLIWVVG [Q10L] here?
A: 3.74

Q: With PVVSMDLDPMPITDEEEGLIWVVG [Q10M] as the variant, how does the protein stability index read?
A: 3.88

Q: For PVVSMDLDPNPITDEEEGLIWVVG [Q10N], which protein stability index is on record?
A: 3.42

Q: For PVVSMDLDPPPITDEEEGLIWVVG [Q10P], which protein stability index is on record?
A: 3.75

Q: With PVVSMDLDPRPITDEEEGLIWVVG [Q10R] as the variant, how does the protein stability index read?
A: 3.89

Q: With PVVSMDLDPSPITDEEEGLIWVVG [Q10S] as the variant, how does the protein stability index read?
A: 2.77

Q: For PVVSMDLDPTPITDEEEGLIWVVG [Q10T], which protein stability index is on record?
A: 3.73

Q: With PVVSMDLDPWPITDEEEGLIWVVG [Q10W] as the variant, how does the protein stability index read?
A: 3.8

Q: For PVVSMDLDPYPITDEEEGLIWVVG [Q10Y], which protein stability index is on record?
A: 2.92

Q: Which protein stability index does the source give for PVVSMDLDPQAITDEEEGLIWVVG [P11A] here?
A: 4.67

Q: With PVVSMDLDPQCITDEEEGLIWVVG [P11C] as the variant, how does the protein stability index read?
A: 3.36

Q: For PVVSMDLDPQFITDEEEGLIWVVG [P11F], which protein stability index is on record?
A: 3.25

Q: For PVVSMDLDPQHITDEEEGLIWVVG [P11H], which protein stability index is on record?
A: 3.8

Q: Which protein stability index does the source give for PVVSMDLDPQIITDEEEGLIWVVG [P11I] here?
A: 2.93

Q: Which protein stability index does the source give for PVVSMDLDPQKITDEEEGLIWVVG [P11K] here?
A: 3.68

Q: For PVVSMDLDPQMITDEEEGLIWVVG [P11M], which protein stability index is on record?
A: 4.27

Q: For PVVSMDLDPQNITDEEEGLIWVVG [P11N], which protein stability index is on record?
A: 3.36

Q: With PVVSMDLDPQQITDEEEGLIWVVG [P11Q] as the variant, how does the protein stability index read?
A: 4.39

Q: Which protein stability index does the source give for PVVSMDLDPQTITDEEEGLIWVVG [P11T] here?
A: 3.77

Q: Which protein stability index does the source give for PVVSMDLDPQYITDEEEGLIWVVG [P11Y] here?
A: 2.67

Q: For PVVSMDLDPQPCTDEEEGLIWVVG [I12C], which protein stability index is on record?
A: 3.66
